# In patent US20240270874A1 (JIANGSU HENGRUI PHARMACEUTICALS, published 2024):
# T1: human KLB on CHOK1-hKLB cells (human, UniProt Q86Z14 1-1044)
# T1 construct: whole, on cells; also called human KLB antigen; β-Klotho
# T1 sequence (looked up): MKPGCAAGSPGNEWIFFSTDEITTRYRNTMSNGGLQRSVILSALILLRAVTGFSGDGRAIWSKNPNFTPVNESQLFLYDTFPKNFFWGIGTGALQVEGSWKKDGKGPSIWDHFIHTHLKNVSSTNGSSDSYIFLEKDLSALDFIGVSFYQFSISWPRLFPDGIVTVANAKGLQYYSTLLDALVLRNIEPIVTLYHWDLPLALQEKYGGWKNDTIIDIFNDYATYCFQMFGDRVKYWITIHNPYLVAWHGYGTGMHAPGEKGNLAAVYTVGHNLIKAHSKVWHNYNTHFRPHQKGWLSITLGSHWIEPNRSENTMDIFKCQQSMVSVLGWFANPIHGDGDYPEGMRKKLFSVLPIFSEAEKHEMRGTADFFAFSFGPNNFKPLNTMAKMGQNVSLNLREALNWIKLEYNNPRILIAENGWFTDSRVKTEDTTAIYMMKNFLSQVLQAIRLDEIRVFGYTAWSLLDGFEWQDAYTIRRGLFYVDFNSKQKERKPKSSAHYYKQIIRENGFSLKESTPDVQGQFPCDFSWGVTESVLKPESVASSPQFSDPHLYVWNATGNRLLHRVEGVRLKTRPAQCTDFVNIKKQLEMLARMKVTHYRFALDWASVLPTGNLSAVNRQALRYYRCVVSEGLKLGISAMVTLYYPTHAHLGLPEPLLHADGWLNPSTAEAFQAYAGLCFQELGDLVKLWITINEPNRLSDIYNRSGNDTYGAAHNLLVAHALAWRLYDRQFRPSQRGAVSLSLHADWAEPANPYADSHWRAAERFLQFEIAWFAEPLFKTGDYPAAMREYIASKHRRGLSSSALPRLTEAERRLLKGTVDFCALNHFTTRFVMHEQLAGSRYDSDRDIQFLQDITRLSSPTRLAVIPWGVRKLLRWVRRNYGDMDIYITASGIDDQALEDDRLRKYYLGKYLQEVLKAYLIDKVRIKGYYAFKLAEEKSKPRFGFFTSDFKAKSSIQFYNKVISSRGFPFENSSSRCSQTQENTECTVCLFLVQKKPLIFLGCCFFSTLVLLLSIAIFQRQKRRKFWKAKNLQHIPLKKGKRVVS
# T2: hKLB (R&D, Cat. # 5889-KB) (human, UniProt Q86Z14 53-997, limits assumed)
# T2 construct: bought soluble protein; also called KLB protein; human KLB
# T2 sequence (looked up): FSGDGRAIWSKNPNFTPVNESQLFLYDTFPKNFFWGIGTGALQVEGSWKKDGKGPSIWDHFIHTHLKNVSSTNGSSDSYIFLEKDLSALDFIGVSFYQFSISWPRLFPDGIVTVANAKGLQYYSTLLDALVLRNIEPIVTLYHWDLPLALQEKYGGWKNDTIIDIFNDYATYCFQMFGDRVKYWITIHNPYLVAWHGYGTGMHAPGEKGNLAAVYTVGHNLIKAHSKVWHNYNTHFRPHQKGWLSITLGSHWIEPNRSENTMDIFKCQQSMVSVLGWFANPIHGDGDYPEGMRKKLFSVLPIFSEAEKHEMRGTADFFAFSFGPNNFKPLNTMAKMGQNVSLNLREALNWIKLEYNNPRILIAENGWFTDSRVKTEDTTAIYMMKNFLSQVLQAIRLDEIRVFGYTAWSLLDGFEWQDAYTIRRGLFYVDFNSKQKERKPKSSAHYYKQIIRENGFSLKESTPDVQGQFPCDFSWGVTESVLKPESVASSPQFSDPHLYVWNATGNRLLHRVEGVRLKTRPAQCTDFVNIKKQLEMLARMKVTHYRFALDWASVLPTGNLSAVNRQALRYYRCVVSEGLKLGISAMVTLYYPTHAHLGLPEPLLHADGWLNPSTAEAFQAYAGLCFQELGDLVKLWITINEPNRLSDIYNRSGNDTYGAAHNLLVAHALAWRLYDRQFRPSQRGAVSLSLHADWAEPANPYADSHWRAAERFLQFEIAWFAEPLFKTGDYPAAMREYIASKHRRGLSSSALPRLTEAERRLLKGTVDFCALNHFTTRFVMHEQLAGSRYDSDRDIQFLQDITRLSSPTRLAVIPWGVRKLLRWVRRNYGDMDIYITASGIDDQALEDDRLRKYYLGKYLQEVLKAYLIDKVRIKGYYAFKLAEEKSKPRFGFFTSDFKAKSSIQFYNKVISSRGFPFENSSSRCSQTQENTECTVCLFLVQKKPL
# B1: hAb18-8 (antibody, human IgG1, kappa, L234A L235A, V domains shown)
# VH: EVQLVQSGAEVKKPGASVKVSCKASGYTFTDYAMHWVRQAPGQRLEWMGVISTYSGTTNYNQNFKGRVTITVDKSASTAYMELSSLRSEDTAVYYCARSGPLDYWGQGTTVTVSS
# VL: ENVLTQSPDFQSVTPKEKVTITCRATSSVSSSYLHWYQQKPDQSPKLWIYSTSQLASGVPSRFSGSGSGTDYTLTINSLEAEDAATYYCQQYSGYPLTFGQGTKLEIKR
# notes: human IgG1 (L234A, L235A) / kappa
# B2: hAb99-13 (antibody, human IgG1, kappa, L234A L235A, V domains shown)
# VH: EVQLVQSGAEVKKPGASVKVSCKASGYTFTNYGINWVRQAPGQRLEWMGYIYIGNVDIEYNAKFKGRVTITSDTSASTAYMELSSLRSEDTAVYYCARGRGLGHFDVWGQGTTVTVSS
# VL: DIQMTQSPSSLSASVGDRVTITCRASKSISKFLAWFQQKPGKTNKLLIYSGSTLQSGVPSRFSGSGSGTDFTLTISSLQPEDFATYYCQQHNEYPWTFGGGTKVEIKR
# notes: as for B1
# B3: hAb-23 (antibody, human IgG1, kappa, L234A L235A, V domains shown)
# VH: QVQLVQSGAEVKKPGSSVKVSCKASGGTFSSYAISWVRQAPGQGLEWMGGIIPIFGTANYAQKFQGRVTITADESTSTAYMELSSLRSEDTAVYYCARELVSYYYGMDVWGQGTMVTVSS
# VL: not shown
# notes: from a human natural phage library; human IgG1 (L234A, L235A) / kappa; also called fully human antibody hAb-23
# What was measured:
# human FGFR1c on cells = human FGFR1c on cells (human, UniProt P11362 22-822); test: cell-based or functional assay
# Chain of human FGFR1c on cells (P11362 22-822): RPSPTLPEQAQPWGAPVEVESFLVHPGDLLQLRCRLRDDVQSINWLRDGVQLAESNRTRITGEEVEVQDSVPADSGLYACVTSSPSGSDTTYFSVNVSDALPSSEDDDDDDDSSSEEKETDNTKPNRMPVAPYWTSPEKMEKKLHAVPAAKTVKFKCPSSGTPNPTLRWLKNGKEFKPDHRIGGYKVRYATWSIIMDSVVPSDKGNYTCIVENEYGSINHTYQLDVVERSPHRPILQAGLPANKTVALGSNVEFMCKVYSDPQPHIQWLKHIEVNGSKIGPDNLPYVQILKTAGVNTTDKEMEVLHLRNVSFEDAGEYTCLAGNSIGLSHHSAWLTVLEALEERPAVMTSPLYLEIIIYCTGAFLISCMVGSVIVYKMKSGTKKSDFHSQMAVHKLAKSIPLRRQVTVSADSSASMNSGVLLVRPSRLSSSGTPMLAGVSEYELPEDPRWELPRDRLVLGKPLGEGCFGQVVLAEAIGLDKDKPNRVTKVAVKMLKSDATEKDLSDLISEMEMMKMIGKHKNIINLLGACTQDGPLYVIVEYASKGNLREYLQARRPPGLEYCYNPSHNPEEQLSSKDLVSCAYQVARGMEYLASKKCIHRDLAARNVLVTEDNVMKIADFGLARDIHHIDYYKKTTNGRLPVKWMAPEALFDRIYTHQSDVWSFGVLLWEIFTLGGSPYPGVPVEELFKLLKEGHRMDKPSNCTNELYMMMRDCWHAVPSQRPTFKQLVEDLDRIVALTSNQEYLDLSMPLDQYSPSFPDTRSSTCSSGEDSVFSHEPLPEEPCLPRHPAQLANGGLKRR
# [1] = molecular target: T1, human KLB on CHOK1-hKLB cells; test: flow cytometry on CHOK1-hKLB cells
# Description: The above heavy chain variable regions were fused to the heavy chain constant region (set forth in SEQ ID NO: 22) and the light chain variable regions were fused to the light chain constant region (set forth in SEQ ID NO: 23) to construct anti-KLB antibodies, and the binding activity of the obtained antibodies for CHOK1-hKLB was detected (see Test Example 2 of the present disclosure for the experimental method).
# The binding ability of the antibodies for CHOK1 cell strains CHOK1-hKLB and CHOK1-cynoKLB overexpressing human KLB and monkey KLB (see Example 1 for specific preparation procedure), respectively, was detected by flow cytometry. The specific procedure was as follows: the above cells were cultured in 10% FBS-containing IMDM medium and incubated in an incubator at 37° C. and 5% CO₂ for 2 days. The cells were then added to a cell plate at 1×10⁵ cells per well, centrifuged at 300 g for 5 min, and then washed once with 1% BSA. The antibody diluted in gradient was added to the cell plate at 100 μL per well, and the mixture was incubated at 4° C. for 1 h and washed once with 1% BSA. The diluted (1:400) APC-goat anti-human IgG Fc fluorescent secondary antibody was added at 100 μL per well, and the resulting mixture was incubated at 4° C. for 1 h. The plate was washed three times with 1% BSA, PBS was added at 100 μL per well, and the plate was read.
# [2] = molecular target: T2, hKLB (R&D, Cat. # 5889-KB); test: BLI (Octet HTX) competition; KLB+antibody premix on SA sensor; competitor: immobilised Bio-FGF21
# Protocol: Bio-FGF21/Bio-FGF19 (obtained by subjecting FGF21 and FGF19 to Biotin labeling with a Biotin Labeling Kit-NH2 (available from DOJINDO Molecular technologies Inc., LK03), wherein FGF21 is set forth in SEQ ID NO: 76 and FGF19 is set forth in SEQ ID NO: 77) was immobilized to an SA sensor (incubation for 80 s) at a concentration of 2 μg/mL, and the sensor was then transferred to a sample well containing KLB (R&D, 5889-KB-1 mg) or containing KLB+antibody premix (pre-incubation for at least 15 min) for 180 s of binding. The reaction signals were detected in real time using the ForteBio OCTET HTX instrument to obtain a binding curve.
Binder,"Activation fold, SRE-Luc2P reporter in HEK293-hFGFR1c cells (human FGFR1c on cells)",EC50 [1],"binding signal of KLB to Bio-FGF21, % of KLB alone [2]"
B1,0.81 fold,2.5 nM,108%
B2,0.77 fold,0.32 nM,108%
B3,0.86 fold,,113%
